# Test results reported in publication PMC7864929, “Crystal structure of the human PRPK–TPRKB complex” (Communications Biology, 2021).
# T1: MBP-tagged OSGEP (human, UniProt Q9NPF4 1-335)
# T1 construct: human OSGEP (gene bought from DNAsu); Cloned into a modified pMal-c2X vector; also called MBP-OSGEP; Kae1 (yeast ortholog); source: E. coli BL21-CodonPlus (DE3), purified (amylose resin, HiTrap Q anion exchange)
# T1 sequence (looked up): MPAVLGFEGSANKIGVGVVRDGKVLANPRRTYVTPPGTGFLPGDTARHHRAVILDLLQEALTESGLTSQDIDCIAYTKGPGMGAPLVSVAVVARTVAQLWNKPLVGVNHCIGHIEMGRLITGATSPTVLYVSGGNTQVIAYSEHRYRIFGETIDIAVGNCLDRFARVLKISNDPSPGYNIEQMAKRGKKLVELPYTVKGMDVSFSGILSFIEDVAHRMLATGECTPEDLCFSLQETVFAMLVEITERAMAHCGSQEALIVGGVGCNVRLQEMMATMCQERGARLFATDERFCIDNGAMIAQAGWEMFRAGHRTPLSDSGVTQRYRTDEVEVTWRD
# Biological target: T1, MBP-tagged OSGEP
# Assay: pull-down; GST-tagged PRPK proteins captured on 20 µl glutathione Sepharose 4B from BL21 lysates, then incubated with about 15 µg purified His-TPRKB or MBP-OSGEP; 20 mM Tris-HCl pH 8.0, 300 mM NaCl, 0.1% Nonidet P-40, 5% glycerol, 2 mM DTT, 0.4 mM PMSF; 2 h at 4°C; 4 washes; Western blot with anti-His or anti-MBP
# Settings: both partners purified
row,binding result,Binder
1,binds,"GST-tagged PRPK S250A (enzyme, human, UniProt Q96S44 1-253, looked up, human p53-related protein kinase (PRPK, TP53RK) with S250A; source: E. coli BL21 lysate, captured on glutathione Sepharose 4B resin) MAAARATTPADGEEPAPEAEALAAARERSSRFLSGLELVKQGAEARVFRGRFQGRAAVIKHRFPKGYRHPALEARLGRRRTVQEARALLRCRRAGISAPVVFFVDYASNCLYMEEIEGSVTVRDYIQSTMETEKTPQGLSNLAKTIGQVLARMHDEDLIHGDLTTSNMLLKPPLEQLNIVLIDFGLSFISALPEDKGVDLYVLEKAFLSTHPNTETVFEAFLKSYSTSSKKARPVLKKLDEVRLRGRKRAMVG"
2,binds,"GST-tagged PRPK K65A (enzyme, human, UniProt Q96S44 1-253, looked up, human p53-related protein kinase (PRPK, TP53RK) with K65A; source: E. coli BL21 lysate, captured on glutathione Sepharose 4B resin) MAAARATTPADGEEPAPEAEALAAARERSSRFLSGLELVKQGAEARVFRGRFQGRAAVIKHRFPAGYRHPALEARLGRRRTVQEARALLRCRRAGISAPVVFFVDYASNCLYMEEIEGSVTVRDYIQSTMETEKTPQGLSNLAKTIGQVLARMHDEDLIHGDLTTSNMLLKPPLEQLNIVLIDFGLSFISALPEDKGVDLYVLEKAFLSTHPNTETVFEAFLKSYSTSSKKARPVLKKLDEVRLRGRKRSMVG"
3,binds,"GST-tagged PRPK R80A (enzyme, human, UniProt Q96S44 1-253, looked up, human p53-related protein kinase (PRPK, TP53RK) with R80A; source: E. coli BL21 lysate, captured on glutathione Sepharose 4B resin) MAAARATTPADGEEPAPEAEALAAARERSSRFLSGLELVKQGAEARVFRGRFQGRAAVIKHRFPKGYRHPALEARLGRRATVQEARALLRCRRAGISAPVVFFVDYASNCLYMEEIEGSVTVRDYIQSTMETEKTPQGLSNLAKTIGQVLARMHDEDLIHGDLTTSNMLLKPPLEQLNIVLIDFGLSFISALPEDKGVDLYVLEKAFLSTHPNTETVFEAFLKSYSTSSKKARPVLKKLDEVRLRGRKRSMVG"
4,binds,"GST-tagged PRPK (wild type) (enzyme, human, UniProt Q96S44 1-253, looked up, human p53-related protein kinase (PRPK, TP53RK); Cloned into pGEX-6p-1; Parent of the GST-PRPK mutants; also called GST-PRPK; TP53RK; source: E. coli BL21 lysate, captured on glutathione Sepharose 4B resin) MAAARATTPADGEEPAPEAEALAAARERSSRFLSGLELVKQGAEARVFRGRFQGRAAVIKHRFPKGYRHPALEARLGRRRTVQEARALLRCRRAGISAPVVFFVDYASNCLYMEEIEGSVTVRDYIQSTMETEKTPQGLSNLAKTIGQVLARMHDEDLIHGDLTTSNMLLKPPLEQLNIVLIDFGLSFISALPEDKGVDLYVLEKAFLSTHPNTETVFEAFLKSYSTSSKKARPVLKKLDEVRLRGRKRSMVG"
5,binds,"GST-tagged PRPK K205A (enzyme, human, UniProt Q96S44 1-253, looked up, human p53-related protein kinase (PRPK, TP53RK) with K205A; source: E. coli BL21 lysate, captured on glutathione Sepharose 4B resin) MAAARATTPADGEEPAPEAEALAAARERSSRFLSGLELVKQGAEARVFRGRFQGRAAVIKHRFPKGYRHPALEARLGRRRTVQEARALLRCRRAGISAPVVFFVDYASNCLYMEEIEGSVTVRDYIQSTMETEKTPQGLSNLAKTIGQVLARMHDEDLIHGDLTTSNMLLKPPLEQLNIVLIDFGLSFISALPEDKGVDLYVLEAAFLSTHPNTETVFEAFLKSYSTSSKKARPVLKKLDEVRLRGRKRSMVG"
6,binds,"GST-tagged PRPK S250E (enzyme, human, UniProt Q96S44 1-253, looked up, human p53-related protein kinase (PRPK, TP53RK) with S250E; source: E. coli BL21 lysate, captured on glutathione Sepharose 4B resin) MAAARATTPADGEEPAPEAEALAAARERSSRFLSGLELVKQGAEARVFRGRFQGRAAVIKHRFPKGYRHPALEARLGRRRTVQEARALLRCRRAGISAPVVFFVDYASNCLYMEEIEGSVTVRDYIQSTMETEKTPQGLSNLAKTIGQVLARMHDEDLIHGDLTTSNMLLKPPLEQLNIVLIDFGLSFISALPEDKGVDLYVLEKAFLSTHPNTETVFEAFLKSYSTSSKKARPVLKKLDEVRLRGRKREMVG"
